Results as given in patent US20100261178A1.

Legend:
[1] = molecular target: human adiponectin receptor AdipoR1 (human) (UniProt Q96A54)
[2] = molecular target: human adiponectin receptor AdipoR2 (human) (UniProt Q86V24)

EC50 of adiponectin for repression of FET3-lacZ [1]: 0.7 pM | log EC50 pM of adiponectin for repression of FET3-lacZ [1]: -0.13 log EC50 pM | EC50 of adiponectin for repression of FET3-lacZ [2]: 2.4 pM | log EC50 pM of adiponectin for repression of FET3-lacZ [2]: 0.38 log EC50 pM
Substance: adiponectin (ligand)
